{"source": "paper PMC2928781", "assay_in_all_cases": "two-hybrid; L40 strain co-transformed with pGAD424 (prey) and pBTM116 (target) constructs; LACZ reporter read by ONPG assay (Miller units); each mutant against the wild-type MSH4 or MSH5 partner; three independent co-transformants", "key": {"[1]": {"target": "Msh5 D539A (S. cerevisiae) (UniProt Q12175)"}, "[2]": {"target": "Msh5 D527A (S. cerevisiae) (UniProt Q12175)"}, "[3]": {"target": "Msh5 Y661A (S. cerevisiae) (UniProt Q12175)"}, "[4]": {"target": "Msh5 D680A (S. cerevisiae) (UniProt Q12175)"}, "[5]": {"target": "Msh5 D76A (S. cerevisiae) (UniProt Q12175)"}, "[6]": {"target": "Msh5 V488A (S. cerevisiae) (UniProt Q12175)"}, "[7]": {"target": "Msh5 G648A (S. cerevisiae) (UniProt Q12175)"}, "[8]": {"target": "Msh5 E45A (S. cerevisiae) (UniProt Q12175)"}, "[9]": {"target": "Msh5 D532A (S. cerevisiae) (UniProt Q12175)"}, "[10]": {"target": "Msh5 Y480A (S. cerevisiae) (UniProt Q12175)"}, "[11]": {"target": "Msh5 N182A (S. cerevisiae) (UniProt Q12175)"}, "[12]": {"target": "Msh5 S416A (S. cerevisiae) (UniProt Q12175)"}, "[13]": {"target": "Msh5 D433A (S. cerevisiae) (UniProt Q12175)"}, "[14]": {"target": "Msh5 R685W (S. cerevisiae) (UniProt Q12175)"}, "[15]": {"target": "Msh5 W298A (S. cerevisiae) (UniProt Q12175)"}, "[16]": {"target": "Msh5 D250A (S. cerevisiae) (UniProt Q12175)"}, "[17]": {"target": "Msh5 R436A (S. cerevisiae) (UniProt Q12175)"}, "[18]": {"target": "Msh5 (S. cerevisiae) (UniProt Q12175)"}}}
{"substance": "Msh4 (from UniProt P40965 1-878) (natural protein)", "values": [{"measurement": "β-galactosidase activity (two-hybrid)", "setting": "[1]", "result": 89, "unit": "Miller units"}, {"measurement": "β-galactosidase activity (two-hybrid)", "setting": "[2]", "result": 1.9, "unit": "Miller units"}, {"measurement": "β-galactosidase activity (two-hybrid)", "setting": "[3]", "result": 1.2, "unit": "Miller units"}, {"measurement": "β-galactosidase activity (two-hybrid)", "setting": "[4]", "result": 1.4, "unit": "Miller units"}, {"measurement": "β-galactosidase activity (two-hybrid)", "setting": "[5]", "result": 1.3, "unit": "Miller units"}, {"measurement": "β-galactosidase activity (two-hybrid)", "setting": "[6]", "result": 1.4, "unit": "Miller units"}, {"measurement": "β-galactosidase activity (two-hybrid)", "setting": "[7]", "result": 45, "unit": "Miller units"}, {"measurement": "β-galactosidase activity (two-hybrid)", "setting": "[8]", "result": 62, "unit": "Miller units"}, {"measurement": "β-galactosidase activity (two-hybrid)", "setting": "[9]", "result": 3.7, "unit": "Miller units"}, {"measurement": "β-galactosidase activity (two-hybrid)", "setting": "[10]", "result": 2.2, "unit": "Miller units"}, {"measurement": "β-galactosidase activity (two-hybrid)", "setting": "[11]", "result": 63, "unit": "Miller units"}, {"measurement": "β-galactosidase activity (two-hybrid)", "setting": "[12]", "result": 3, "unit": "Miller units"}, {"measurement": "β-galactosidase activity (two-hybrid)", "setting": "[13]", "result": 1.4, "unit": "Miller units"}, {"measurement": "β-galactosidase activity (two-hybrid)", "setting": "[14]", "result": 46, "unit": "Miller units"}, {"measurement": "β-galactosidase activity (two-hybrid)", "setting": "[15]", "result": 1.4, "unit": "Miller units"}, {"measurement": "β-galactosidase activity (two-hybrid)", "setting": "[16]", "result": 6.2, "unit": "Miller units"}, {"measurement": "β-galactosidase activity (two-hybrid)", "setting": "[17]", "result": 1.3, "unit": "Miller units"}, {"measurement": "β-galactosidase activity (two-hybrid)", "setting": "[18]", "result": 54, "unit": "Miller units"}]}
{"substance": "Msh4 D139A (from UniProt P40965 1-878) (natural protein)", "values": [{"measurement": "β-galactosidase activity (two-hybrid)", "setting": "[18]", "result": 1.5, "unit": "Miller units"}]}
{"substance": "Msh4 E276A (from UniProt P40965 1-878) (natural protein)", "values": [{"measurement": "β-galactosidase activity (two-hybrid)", "setting": "[18]", "result": 70, "unit": "Miller units"}]}
{"substance": "Msh4 F491A (from UniProt P40965 1-878) (natural protein)", "values": [{"measurement": "β-galactosidase activity (two-hybrid)", "setting": "[18]", "result": 2.5, "unit": "Miller units"}]}
{"substance": "Msh4 G639A (from UniProt P40965 1-878) (natural protein)", "values": [{"measurement": "β-galactosidase activity (two-hybrid)", "setting": "[18]", "result": 11.6, "unit": "Miller units"}]}
{"substance": "Msh4 L493A (from UniProt P40965 1-878) (natural protein)", "values": [{"measurement": "β-galactosidase activity (two-hybrid)", "setting": "[18]", "result": 1.6, "unit": "Miller units"}]}
{"substance": "Msh4 R456A (from UniProt P40965 1-878) (natural protein)", "values": [{"measurement": "β-galactosidase activity (two-hybrid)", "setting": "[18]", "result": 1.9, "unit": "Miller units"}]}
{"substance": "Msh4 R676W (from UniProt P40965 1-878) (natural protein)", "values": [{"measurement": "β-galactosidase activity (two-hybrid)", "setting": "[18]", "result": 96, "unit": "Miller units"}]}
